In patent publication US7745109B2, “Regulation of cell growth by MUC1” (Dana-Farber Cancer Insitute, Inc., priority 2003, dated 2010):

Biological target: T1, MUC1-p120 complexes (Homo sapiens, UniProt O60716)
T1 sequence (O60716 1-968): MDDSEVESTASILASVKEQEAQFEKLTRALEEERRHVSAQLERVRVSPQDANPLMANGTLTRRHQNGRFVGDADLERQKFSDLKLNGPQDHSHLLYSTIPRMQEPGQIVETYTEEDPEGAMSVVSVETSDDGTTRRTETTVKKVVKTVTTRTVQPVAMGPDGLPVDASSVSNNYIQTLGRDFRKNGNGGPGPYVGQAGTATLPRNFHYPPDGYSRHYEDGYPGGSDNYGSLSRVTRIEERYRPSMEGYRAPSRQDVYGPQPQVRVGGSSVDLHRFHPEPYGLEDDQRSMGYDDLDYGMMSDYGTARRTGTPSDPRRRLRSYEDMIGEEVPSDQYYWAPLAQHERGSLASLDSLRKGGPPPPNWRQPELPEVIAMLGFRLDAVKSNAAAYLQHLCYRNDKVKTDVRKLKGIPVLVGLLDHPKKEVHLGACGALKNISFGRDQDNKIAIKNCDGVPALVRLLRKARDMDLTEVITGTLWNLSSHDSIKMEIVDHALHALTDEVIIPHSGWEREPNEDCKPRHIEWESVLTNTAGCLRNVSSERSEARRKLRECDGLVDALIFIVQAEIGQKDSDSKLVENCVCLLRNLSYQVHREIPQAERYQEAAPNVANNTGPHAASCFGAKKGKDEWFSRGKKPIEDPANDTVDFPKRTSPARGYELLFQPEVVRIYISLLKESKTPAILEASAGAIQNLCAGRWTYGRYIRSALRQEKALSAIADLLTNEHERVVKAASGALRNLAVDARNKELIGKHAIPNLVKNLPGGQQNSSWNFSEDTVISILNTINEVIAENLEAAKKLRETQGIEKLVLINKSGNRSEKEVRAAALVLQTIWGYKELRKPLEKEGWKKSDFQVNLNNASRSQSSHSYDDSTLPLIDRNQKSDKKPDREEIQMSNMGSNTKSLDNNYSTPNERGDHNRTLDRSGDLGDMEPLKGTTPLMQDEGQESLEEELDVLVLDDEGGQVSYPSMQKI
Test: Inhibition of MUC1/CD binding to GST-p120 by peptides (glutathione bead precipitation, anti-MUC1/CD immunoblot)
Conditions: peptide incubated with MUC1/CD and GST-p120; immunoblot with anti-MUC1/CD (FIG. 7C)
Procedure: FIG. 7C is a pair of photographs of immunoblots. In the table above the immunoblots is indicated the mixtures of MUC1/CD, GST-p120, and GST which were incubated in the absence of inhibitor peptide (first and fourth lanes of both immunoblots) or in the presence of either a peptide with the amino acid sequence […] (SEQ ID NO:7) or a peptide with the amino acid sequence […] (SEQ ID NO:8). The four mixtures were incubated with glutathione-Sepharose 4B™ beads and proteins precipitated by the beads were subjected to immunoblot analysis with anti-MUC1/CD (“IB: anti-MUC1/CD”) (top immunoblot) or anti-p120 (“IB: anti-p120”) ([…]). The positions of MUC1/CD and p120 on the immunoblots are indicated.
To identify the site in MUC1/CD that binds to p120, full-length MUC1/CD and the N- and C-terminal fragments (FIG. 7A) were incubated with purified GST-p120. […] To further localize the site, two peptides from the overlapping region were prepared. […] These findings indicate that p120 interacts with the […] site (SEQ ID NO:7) in MUC1.

MSEYPTYHTH (listed as Homo sapiens) [peptide from the MUC1/CD region common to the N- and C-terminal fragments]
inhibition of the formation of MUC1-p120 complexes: inhibits the formation of MUC1-p120 complexes
